# Reference: patent US20040019188A1, “Targeting through integrins” (priority 2000, published 2004)
# Biological target: α5β1 integrin (major fibronectin receptor) on HEp-2 cells (human), P08648
# Sequence (P08648 42-1049, chain 1 of 2): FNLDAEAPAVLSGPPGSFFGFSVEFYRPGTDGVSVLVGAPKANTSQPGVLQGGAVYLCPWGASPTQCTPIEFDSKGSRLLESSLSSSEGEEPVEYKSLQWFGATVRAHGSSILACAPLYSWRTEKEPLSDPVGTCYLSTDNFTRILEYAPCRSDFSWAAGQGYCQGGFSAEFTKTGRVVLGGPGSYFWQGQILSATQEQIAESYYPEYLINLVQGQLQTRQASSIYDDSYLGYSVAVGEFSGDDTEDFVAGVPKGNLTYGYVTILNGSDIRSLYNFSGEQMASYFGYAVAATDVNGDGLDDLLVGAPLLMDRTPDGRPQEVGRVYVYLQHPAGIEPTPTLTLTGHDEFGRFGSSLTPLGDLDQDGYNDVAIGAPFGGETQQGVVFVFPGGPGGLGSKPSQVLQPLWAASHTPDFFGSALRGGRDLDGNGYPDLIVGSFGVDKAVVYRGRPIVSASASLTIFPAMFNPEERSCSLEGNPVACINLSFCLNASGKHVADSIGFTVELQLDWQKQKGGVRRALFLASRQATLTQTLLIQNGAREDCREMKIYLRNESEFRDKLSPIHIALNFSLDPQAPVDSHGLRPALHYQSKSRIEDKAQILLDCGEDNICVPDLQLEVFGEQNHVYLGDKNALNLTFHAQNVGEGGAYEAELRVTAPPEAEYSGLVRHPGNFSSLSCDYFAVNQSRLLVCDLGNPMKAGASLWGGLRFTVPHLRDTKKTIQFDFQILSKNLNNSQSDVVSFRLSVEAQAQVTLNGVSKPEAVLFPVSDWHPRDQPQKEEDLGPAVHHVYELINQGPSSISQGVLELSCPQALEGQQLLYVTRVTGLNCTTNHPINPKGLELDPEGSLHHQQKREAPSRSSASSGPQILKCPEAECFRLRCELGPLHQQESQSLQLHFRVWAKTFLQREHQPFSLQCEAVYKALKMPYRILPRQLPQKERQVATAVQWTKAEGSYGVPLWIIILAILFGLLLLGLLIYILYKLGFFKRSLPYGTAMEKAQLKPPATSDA
# Sequence (P05556 21-798, chain 2 of 2, further chain): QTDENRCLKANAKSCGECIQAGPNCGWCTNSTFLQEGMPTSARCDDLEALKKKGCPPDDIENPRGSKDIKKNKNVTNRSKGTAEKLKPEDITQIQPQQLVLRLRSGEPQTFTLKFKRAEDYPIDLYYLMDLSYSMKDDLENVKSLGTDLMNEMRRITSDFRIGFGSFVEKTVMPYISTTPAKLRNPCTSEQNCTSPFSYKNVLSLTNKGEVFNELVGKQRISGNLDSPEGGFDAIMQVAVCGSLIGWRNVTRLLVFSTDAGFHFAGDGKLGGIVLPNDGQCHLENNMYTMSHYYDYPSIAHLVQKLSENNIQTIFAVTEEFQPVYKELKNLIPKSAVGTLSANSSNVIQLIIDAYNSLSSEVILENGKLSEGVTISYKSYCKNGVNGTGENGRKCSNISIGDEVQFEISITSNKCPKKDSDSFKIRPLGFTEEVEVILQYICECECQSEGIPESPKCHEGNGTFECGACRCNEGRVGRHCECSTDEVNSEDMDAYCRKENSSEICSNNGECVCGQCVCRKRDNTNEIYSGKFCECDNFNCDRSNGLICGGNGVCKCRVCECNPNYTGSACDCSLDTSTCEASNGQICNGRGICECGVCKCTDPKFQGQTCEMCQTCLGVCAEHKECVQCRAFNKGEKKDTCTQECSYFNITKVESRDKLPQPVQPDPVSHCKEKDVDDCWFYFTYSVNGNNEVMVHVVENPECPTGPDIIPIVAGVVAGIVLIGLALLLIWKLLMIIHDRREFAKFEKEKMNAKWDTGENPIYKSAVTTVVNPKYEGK
binder,measurement,value
RGDS (modifications not checked) [RGDS peptide (Gibco)],ID30,170 µM
